Source: PMC5000598

What was measured:
[1] = molecular target: LZ-EGFR-GFP (chimeric EGFR with the extracellular domain replaced by the c-Fos leucine zipper, GFP at the C-terminus) (UniProt P01100); assay: cross-linking; homogenates of transiently transfected 293T cells in PBS, 6 mM DSS, 30 min at room temperature, quenched with 250 mM glycine; membrane pellet lysed, SDS-PAGE, immunoblot with anti-EGFR and anti-GFP; EGFR-GFP cells stimulated with EGF (100 ng/mL, 30 min)
[2] = molecular target: LZ-EGFR-GFP (chimeric EGFR with the extracellular domain replaced by the c-Fos leucine zipper, GFP at the C-terminus) (UniProt P01100); assay: SDS-resistant dimer on SDS-PAGE immunoblot; total Triton X-100 lysates of transfected 293T cells boiled in SDS-loading buffer with beta-mercaptoethanol, no cross-linker; immunoblot with anti-pEGFR antibodies

stoichiometry N [1]: 2 | stoichiometry N [2]: 2
Substance: LZ-EGFR-GFP (chimeric EGFR with the extracellular domain replaced by the c-Fos leucine zipper, GFP at the C-terminus) (from UniProt P01100 160-200; P00533 623-1210) (receptor)
